{
  "source": "the supplement of paper PMC10567573",
  "parents": {"B1": {"name": "TRAF3IP2 (parent)", "chain": "FMEKRNQWLVSQLSAASPDTGHDS"}},
  "data": [
    {"variants_of": "B1", "experiment": "protein stability index of a GFP-peptide fusion (GPS, HEK-293T) (PSI 1-6); higher = more stable", "conditions": "c terminus: a fixed tail appended", "values": [
      {"variant": "FMEKRNQWLVDQLSAASPDTGHDS", "note": "[S11D]", "protein stability index": 3.79},
      {"variant": "FMEKRNQWLVEQLSAASPDTGHDS", "note": "[S11E]", "protein stability index": 3.27},
      {"variant": "FMEKRNQWLVGQLSAASPDTGHDS", "note": "[S11G]", "protein stability index": 3.32},
      {"variant": "FMEKRNQWLVHQLSAASPDTGHDS", "note": "[S11H]", "protein stability index": 2.63},
      {"variant": "FMEKRNQWLVIQLSAASPDTGHDS", "note": "[S11I]", "protein stability index": 2.06},
      {"variant": "FMEKRNQWLVKQLSAASPDTGHDS", "note": "[S11K]", "protein stability index": 2.7},
      {"variant": "FMEKRNQWLVLQLSAASPDTGHDS", "note": "[S11L]", "protein stability index": 1.46},
      {"variant": "FMEKRNQWLVMQLSAASPDTGHDS", "note": "[S11M]", "protein stability index": 1.71},
      {"variant": "FMEKRNQWLVNQLSAASPDTGHDS", "note": "[S11N]", "protein stability index": 3.18},
      {"variant": "FMEKRNQWLVPQLSAASPDTGHDS", "note": "[S11P]", "protein stability index": 2.9},
      {"variant": "FMEKRNQWLVQQLSAASPDTGHDS", "note": "[S11Q]", "protein stability index": 2.89},
      {"variant": "FMEKRNQWLVRQLSAASPDTGHDS", "note": "[S11R]", "protein stability index": 3.3},
      {"variant": "FMEKRNQWLVTQLSAASPDTGHDS", "note": "[S11T]", "protein stability index": 2.19},
      {"variant": "FMEKRNQWLVVQLSAASPDTGHDS", "note": "[S11V]", "protein stability index": 2.4},
      {"variant": "FMEKRNQWLVWQLSAASPDTGHDS", "note": "[S11W]", "protein stability index": 3.25},
      {"variant": "FMEKRNQWLVYQLSAASPDTGHDS", "note": "[S11Y]", "protein stability index": 2.64},
      {"variant": "FMEKRNQWLVSALSAASPDTGHDS", "note": "[Q12A]", "protein stability index": 2.04},
      {"variant": "FMEKRNQWLVSCLSAASPDTGHDS", "note": "[Q12C]", "protein stability index": 1.85},
      {"variant": "FMEKRNQWLVSDLSAASPDTGHDS", "note": "[Q12D]", "protein stability index": 3.21},
      {"variant": "FMEKRNQWLVSELSAASPDTGHDS", "note": "[Q12E]", "protein stability index": 3.33},
      {"variant": "FMEKRNQWLVSFLSAASPDTGHDS", "note": "[Q12F]", "protein stability index": 1.94},
      {"variant": "FMEKRNQWLVSHLSAASPDTGHDS", "note": "[Q12H]", "protein stability index": 3.89},
      {"variant": "FMEKRNQWLVSILSAASPDTGHDS", "note": "[Q12I]", "protein stability index": 1.89},
      {"variant": "FMEKRNQWLVSKLSAASPDTGHDS", "note": "[Q12K]", "protein stability index": 1.77},
      {"variant": "FMEKRNQWLVSLLSAASPDTGHDS", "note": "[Q12L]", "protein stability index": 1.65},
      {"variant": "FMEKRNQWLVSMLSAASPDTGHDS", "note": "[Q12M]", "protein stability index": 1.68},
      {"variant": "FMEKRNQWLVSNLSAASPDTGHDS", "note": "[Q12N]", "protein stability index": 2.81},
      {"variant": "FMEKRNQWLVSPLSAASPDTGHDS", "note": "[Q12P]", "protein stability index": 2.71},
      {"variant": "FMEKRNQWLVSRLSAASPDTGHDS", "note": "[Q12R]", "protein stability index": 2.33},
      {"variant": "FMEKRNQWLVSSLSAASPDTGHDS", "note": "[Q12S]", "protein stability index": 1.77},
      {"variant": "FMEKRNQWLVSTLSAASPDTGHDS", "note": "[Q12T]", "protein stability index": 1.7},
      {"variant": "FMEKRNQWLVSVLSAASPDTGHDS", "note": "[Q12V]", "protein stability index": 1.53},
      {"variant": "FMEKRNQWLVSWLSAASPDTGHDS", "note": "[Q12W]", "protein stability index": 1.45},
      {"variant": "FMEKRNQWLVSYLSAASPDTGHDS", "note": "[Q12Y]", "protein stability index": 1.98},
      {"variant": "FMEKRNQWLVSQASAASPDTGHDS", "note": "[L13A]", "protein stability index": 3.73},
      {"variant": "FMEKRNQWLVSQCSAASPDTGHDS", "note": "[L13C]", "protein stability index": 1.91},
      {"variant": "FMEKRNQWLVSQDSAASPDTGHDS", "note": "[L13D]", "protein stability index": 3.45},
      {"variant": "FMEKRNQWLVSQESAASPDTGHDS", "note": "[L13E]", "protein stability index": 3.2},
      {"variant": "FMEKRNQWLVSQFSAASPDTGHDS", "note": "[L13F]", "protein stability index": 2.48},
      {"variant": "FMEKRNQWLVSQGSAASPDTGHDS", "note": "[L13G]", "protein stability index": 2.47},
      {"variant": "FMEKRNQWLVSQISAASPDTGHDS", "note": "[L13I]", "protein stability index": 2.17},
      {"variant": "FMEKRNQWLVSQKSAASPDTGHDS", "note": "[L13K]", "protein stability index": 2.84},
      {"variant": "FMEKRNQWLVSQMSAASPDTGHDS", "note": "[L13M]", "protein stability index": 2.48},
      {"variant": "FMEKRNQWLVSQPSAASPDTGHDS", "note": "[L13P]", "protein stability index": 3.13},
      {"variant": "FMEKRNQWLVSQQSAASPDTGHDS", "note": "[L13Q]", "protein stability index": 2.5},
      {"variant": "FMEKRNQWLVSQRSAASPDTGHDS", "note": "[L13R]", "protein stability index": 3.01},
      {"variant": "FMEKRNQWLVSQSSAASPDTGHDS", "note": "[L13S]", "protein stability index": 3.17},
      {"variant": "FMEKRNQWLVSQTSAASPDTGHDS", "note": "[L13T]", "protein stability index": 2.67},
      {"variant": "FMEKRNQWLVSQVSAASPDTGHDS", "note": "[L13V]", "protein stability index": 2.61},
      {"variant": "FMEKRNQWLVSQWSAASPDTGHDS", "note": "[L13W]", "protein stability index": 2.45},
      {"variant": "FMEKRNQWLVSQYSAASPDTGHDS", "note": "[L13Y]", "protein stability index": 2.35},
      {"variant": "FMEKRNQWLVSQLAAASPDTGHDS", "note": "[S14A]", "protein stability index": 2.34},
      {"variant": "FMEKRNQWLVSQLCAASPDTGHDS", "note": "[S14C]", "protein stability index": 2.15},
      {"variant": "FMEKRNQWLVSQLDAASPDTGHDS", "note": "[S14D]", "protein stability index": 3.29},
      {"variant": "FMEKRNQWLVSQLEAASPDTGHDS", "note": "[S14E]", "protein stability index": 2.74},
      {"variant": "FMEKRNQWLVSQLFAASPDTGHDS", "note": "[S14F]", "protein stability index": 1.93},
      {"variant": "FMEKRNQWLVSQLGAASPDTGHDS", "note": "[S14G]", "protein stability index": 2.3},
      {"variant": "FMEKRNQWLVSQLHAASPDTGHDS", "note": "[S14H]", "protein stability index": 2.48},
      {"variant": "FMEKRNQWLVSQLIAASPDTGHDS", "note": "[S14I]", "protein stability index": 2.08},
      {"variant": "FMEKRNQWLVSQLKAASPDTGHDS", "note": "[S14K]", "protein stability index": 2.41},
      {"variant": "FMEKRNQWLVSQLLAASPDTGHDS", "note": "[S14L]", "protein stability index": 1.66},
      {"variant": "FMEKRNQWLVSQLMAASPDTGHDS", "note": "[S14M]", "protein stability index": 2.34},
      {"variant": "FMEKRNQWLVSQLNAASPDTGHDS", "note": "[S14N]", "protein stability index": 2.58},
      {"variant": "FMEKRNQWLVSQLPAASPDTGHDS", "note": "[S14P]", "protein stability index": 2.53},
      {"variant": "FMEKRNQWLVSQLQAASPDTGHDS", "note": "[S14Q]", "protein stability index": 2.57},
      {"variant": "FMEKRNQWLVSQLRAASPDTGHDS", "note": "[S14R]", "protein stability index": 2.39},
      {"variant": "FMEKRNQWLVSQLTAASPDTGHDS", "note": "[S14T]", "protein stability index": 2.77},
      {"variant": "FMEKRNQWLVSQLVAASPDTGHDS", "note": "[S14V]", "protein stability index": 1.65},
      {"variant": "FMEKRNQWLVSQLWAASPDTGHDS", "note": "[S14W]", "protein stability index": 1.89},
      {"variant": "FMEKRNQWLVSQLYAASPDTGHDS", "note": "[S14Y]", "protein stability index": 1.63},
      {"variant": "FMEKRNQWLVSQLSCASPDTGHDS", "note": "[A15C]", "protein stability index": 2.38},
      {"variant": "FMEKRNQWLVSQLSDASPDTGHDS", "note": "[A15D]", "protein stability index": 2.47},
      {"variant": "FMEKRNQWLVSQLSEASPDTGHDS", "note": "[A15E]", "protein stability index": 2.73},
      {"variant": "FMEKRNQWLVSQLSFASPDTGHDS", "note": "[A15F]", "protein stability index": 1.83},
      {"variant": "FMEKRNQWLVSQLSGASPDTGHDS", "note": "[A15G]", "protein stability index": 2.71},
      {"variant": "FMEKRNQWLVSQLSHASPDTGHDS", "note": "[A15H]", "protein stability index": 2.33},
      {"variant": "FMEKRNQWLVSQLSIASPDTGHDS", "note": "[A15I]", "protein stability index": 1.77},
      {"variant": "FMEKRNQWLVSQLSKASPDTGHDS", "note": "[A15K]", "protein stability index": 3.53},
      {"variant": "FMEKRNQWLVSQLSLASPDTGHDS", "note": "[A15L]", "protein stability index": 2.3},
      {"variant": "FMEKRNQWLVSQLSMASPDTGHDS", "note": "[A15M]", "protein stability index": 1.7},
      {"variant": "FMEKRNQWLVSQLSNASPDTGHDS", "note": "[A15N]", "protein stability index": 2.21},
      {"variant": "FMEKRNQWLVSQLSPASPDTGHDS", "note": "[A15P]", "protein stability index": 2.75},
      {"variant": "FMEKRNQWLVSQLSQASPDTGHDS", "note": "[A15Q]", "protein stability index": 2.34},
      {"variant": "FMEKRNQWLVSQLSRASPDTGHDS", "note": "[A15R]", "protein stability index": 3.45},
      {"variant": "FMEKRNQWLVSQLSSASPDTGHDS", "note": "[A15S]", "protein stability index": 1.79},
      {"variant": "FMEKRNQWLVSQLSTASPDTGHDS", "note": "[A15T]", "protein stability index": 2.7},
      {"variant": "FMEKRNQWLVSQLSVASPDTGHDS", "note": "[A15V]", "protein stability index": 1.83},
      {"variant": "FMEKRNQWLVSQLSWASPDTGHDS", "note": "[A15W]", "protein stability index": 2.29},
      {"variant": "FMEKRNQWLVSQLSACSPDTGHDS", "note": "[A16C]", "protein stability index": 1.96},
      {"variant": "FMEKRNQWLVSQLSADSPDTGHDS", "note": "[A16D]", "protein stability index": 2.29},
      {"variant": "FMEKRNQWLVSQLSAESPDTGHDS", "note": "[A16E]", "protein stability index": 2.62},
      {"variant": "FMEKRNQWLVSQLSAFSPDTGHDS", "note": "[A16F]", "protein stability index": 2.9},
      {"variant": "FMEKRNQWLVSQLSAGSPDTGHDS", "note": "[A16G]", "protein stability index": 3.03},
      {"variant": "FMEKRNQWLVSQLSAHSPDTGHDS", "note": "[A16H]", "protein stability index": 2.47}
    ]}
  ]
}
